Data from patent publication US20100184837A1.

Legend:
[1] = target: natural HCV acceptors on human liver cancer cells Huh 7.5.1; assay: flow cytometry, binding to Huh 7.5.1 cells (FIG. 6), control protein
[2] = target: natural HCV acceptors on human liver cancer cells Huh 7.5.1; assay: flow cytometry, binding to Huh 7.5.1 cells (FIG. 6), with a single DNA aptamer present as competitor
[3] = target: natural HCV acceptors on human liver cancer cells Huh 7.5.1; assay: flow cytometry, binding to Huh 7.5.1 cells (FIG. 6), no aptamer
[4] = target: natural HCV acceptors on human liver cancer cells Huh 7.5.1; assay: flow cytometry, binding to Huh 7.5.1 cells (FIG. 6), with the thirteenth-round DNA aptamer library present as competitor

Substance	binding rate [1]	binding rate [2]	binding rate [3]	binding rate [4]
protein GST	1%	–	–	–
GST-E2	–	15.4%	36.7%	23.2%
